Measured values taken from patent US20210371526A1 (AMPSOURCE BIOPHARMA SHANGHAI, published 2021).
Each block holds one binder with its values, some of them ahead of it.

Assays:
[1] = biological target: T1, CD3 on cynomolgus monkey T cells (CIK cells, primary T cells) (cynomolgus monkey, UniProt Q95LI5 22-198); assay: flow cytometry on cynomolgus monkey primary T cells
T1 construct: whole, on cells; also called cynomolgus monkey CIK cell membrane CD3

CD20 on Raji cells [2] = biological target: T2, CD20 on Raji cells (human, UniProt P11836 1-297); assay: flow cytometry on CD20-positive Raji cells
T2 construct: whole, on cells; also called CD20-positive tumor cells; Raji-luc
T2 sequence (looked up): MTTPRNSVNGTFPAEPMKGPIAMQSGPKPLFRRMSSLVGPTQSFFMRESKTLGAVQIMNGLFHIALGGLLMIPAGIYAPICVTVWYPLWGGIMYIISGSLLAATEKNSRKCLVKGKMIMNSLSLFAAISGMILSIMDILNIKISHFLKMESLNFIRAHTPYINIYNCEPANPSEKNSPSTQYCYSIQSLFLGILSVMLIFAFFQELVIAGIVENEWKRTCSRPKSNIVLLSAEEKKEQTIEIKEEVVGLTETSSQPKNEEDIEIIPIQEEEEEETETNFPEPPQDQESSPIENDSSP

CD20 on Raji cells [3] = biological target: T2, CD20 on Raji cells; assay: cell-based or functional assay
[4] = biological target: T3, CD19 on tumor cells (Raji, Raji-Luc, NALM6, Reh) (human, UniProt P15391 20-556); assay: flow cytometry on CD19-positive Raji cells
T3 construct: whole, on cells; also called CD19-positive tumor cells Raji
T3 sequence (looked up): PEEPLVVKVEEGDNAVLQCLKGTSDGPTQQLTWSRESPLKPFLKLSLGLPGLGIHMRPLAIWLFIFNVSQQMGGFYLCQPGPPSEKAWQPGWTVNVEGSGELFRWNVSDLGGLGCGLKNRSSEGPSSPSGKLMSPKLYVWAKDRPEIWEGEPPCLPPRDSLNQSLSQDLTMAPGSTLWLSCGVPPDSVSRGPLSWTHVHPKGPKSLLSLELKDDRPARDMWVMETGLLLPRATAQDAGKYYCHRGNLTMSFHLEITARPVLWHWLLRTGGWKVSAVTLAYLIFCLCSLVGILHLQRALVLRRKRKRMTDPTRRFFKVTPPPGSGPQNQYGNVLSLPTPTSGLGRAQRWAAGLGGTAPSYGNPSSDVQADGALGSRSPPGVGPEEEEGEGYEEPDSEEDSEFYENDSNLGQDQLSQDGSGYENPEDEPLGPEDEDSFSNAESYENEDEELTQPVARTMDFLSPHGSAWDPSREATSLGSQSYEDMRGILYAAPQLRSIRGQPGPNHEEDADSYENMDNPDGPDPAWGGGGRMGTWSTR

[5] = biological target: T3, CD19 on tumor cells (Raji, Raji-Luc, …); assay: cell-based or functional assay
[6] = biological target: T3, CD19 on tumor cells (Raji, Raji-Luc, …); assay: cell-based or functional assay; remark: listed apart in the source
[7] = biological target: T3, CD19 on tumor cells (Raji, Raji-Luc, …); assay: FACS on CD19-positive Raji cells, AF647 goat anti-human IgG [left panel]
[8] = biological target: T3, CD19 on tumor cells (Raji, Raji-Luc, …); assay: cell-based or functional assay; remark: listed apart in the source
[9] = biological target: T1, CD3 on cynomolgus monkey T cells (CIK …); assay: flow cytometry on cynomolgus monkey CIK/T cells
[10] = biological target: T3, CD19 on tumor cells (Raji, Raji-Luc, …); assay: cell-based or functional assay; remark: listed apart in the source

T1 sequence (Q95LI5 22-198): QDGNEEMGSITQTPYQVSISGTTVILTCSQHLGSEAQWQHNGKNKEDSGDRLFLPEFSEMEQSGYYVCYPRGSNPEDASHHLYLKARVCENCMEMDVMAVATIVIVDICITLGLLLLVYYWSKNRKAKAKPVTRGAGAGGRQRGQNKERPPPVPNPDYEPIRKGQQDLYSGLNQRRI

B1: Bispecific antibody AB11K (Anti-Mucin1×CD3, scFv1-scFv2-Fc) (bispecific antibody)
chain: EVQLVESGGGLVQPGGSMRLSCVASGFPFSNYWMNWVRQAPGKGLEWVGEIRLKSNNYTTHYAESVKGRFTISRDDSKNSLYLQMNSLKTEDTAVYYCTRHYYFDYWGQGTLVTVSSGGGGSGGGGSGGGGSDIVMTQSPLSNPVTPGEPASISCRSSKSLLHSNGITYFFWYLQKPGQSPQLLIYQMSNLASGVPDRFSGSGSGTDFTLRISRVEAEDVGVYYCAQNLELPPTFGQGTKVEIKGGGGGGSGGGGSGGGGSSSSSKAPPPSEVQLLESGGGLVQPGGSLKLSCAASGFTFNTYAMNWVRQAPGKGLEWVARIRSKYNNYATYYADSVKDRFTISRDDSKNTAYLQMNNLKTEDTAVYYCVRHGNFGNSYVSWFAYWGQGTLVTVSSGGGGSGGGGSGGGGSELVVTQEPSLTVSPGGTVTLTCRSSTGAVTTSNYANWVQQKPGQAPRGLIGGTNKRAPGTPARFSGSLLGGKAALTLSGVQPEDEAEYYCALWYSNLWVFGGGTKLTVLDKTHTCPPCPAPEAAGGPSVFLFPPKPKDQLMISRTPEVTCVVVDVSHEDPEVKFNWYVDGVEVHNAKTKPREEQYASTYRVVSVLTVLHQDWLNGKEYKCKVSNKALPASIEKTISKAKGQPREPQVYTLPPSRDELTKNQVSLTCLVKGFYPSDIAVEWESNGQPENNYKTTPPVLDSDGSFFLYSKLTVDKSRWQQGNVFSCSVLHEALHNHYTQKSLSLSPG
- EC50 [1]: 10 nM

- EC50 (CD20 on Raji cells [2]): ~70 nM
- EC50 of activation of Jurkat NFATRE Luc reporter cells in the presence of CD20-positive Raji cells (CD20 on Raji cells [3]): 0.201 µg/mL
B2: Bispecific antibody AB2K (Anti-CD20×CD3, scFv1-scFv2-Fc) (bispecific antibody)
chain: QVQLQQPGAELVKPGASVKMSCKASGYTFTSYNMHWVKQTPGRGLEWIGAIYPGNGDTSYNQKFKGKATLTADKSSSTAYMQLSSLTSEDSAVYYCARSTYYGGDWYFNVWGAGTTVTVSAGGGGSGGGGSGGGGSQIVLSQSPAILSASPGEKVTMTCRASSSVSYIHWFQQKPGSSPKPWIYATSNLASGVPVRFSGSGSGTSYSLTISRVEAEDAATYYCQQWTSNPPTFGGGTKLEIKGGGGGGSGGGGSGGGGSSSSSKAPPPSEVQLLESGGGLVQPGGSLKLSCAASGFTFNTYAMNWVRQAPGKGLEWVARIRSKYNNYATYYADSVKDRFTISRDDSKNTAYLQMNNLKTEDTAVYYCVRHGNFGNSYVSWFAYWGQGTLVTVSSGGGGSGGGGSGGGGSELVVTQEPSLTVSPGGTVTLTCRSSTGAVTTSNYANWVQQKPGQAPRGLIGGTNKRAPGTPARFSGSLLGGKAALTLSGVQPEDEAEYYCALWYSNLWVFGGGTKLTVLDKTHTCPPCPAPEAAGGPSVFLFPPKPKDQLMISRTPEVTCVVVDVSHEDPEVKFNWYVDGVEVHNAKTKPREEQYASTYRVVSVLTVLHQDWLNGKEYKCKVSNKALPASIEKTISKAKGQPREPQVYTLPPSRDELTKNQVSLTCLVKGFYPSDIAVEWESNGQPENNYKTTPPVLDSDGSFFLYSKLTVDKSRWQQGNVFSCSVLHEALHNHYTQKSLSLSPG
- EC50 of CIK-mediated killing of Raji-luc cells (luciferase) (CD20 on Raji cells [3]): 0.0428 µg/mL

- EC50 [4]: 1.39 nM
- EC50 (read off the curve) [7]: ~1 nM
- EC50 [9]: ~5.5 nM
- EC50 of activation of Jurkat T cells with NFAT RE reporter in the presence of Raji target cells [10]: 1.08 nM
B3: Bispecific antibody AB1K2 (Anti-CD19×CD3, scFv1-scFv2-Fc) (bispecific antibody)
chain: QVQLQESGPGLVKPSQTLSLTCTVSGGSISTSGMGVGWIRQHPGKGLEWIGHIWWDDDKRYNPALKSRVTISVDTSKNQFSLKLSSVTAADTAVYYCARMELWSYYFDYWGQGTLVTVSSGGGGSGGGGSGGGGSEIVLTQSPATLSLSPGERATLSCSASSSVSYMHWYQQKPGQAPRLLIYDTSKLASGIPARFSGSGSGTDFTLTISSLEPEDVAVYYCFQGSVYPFTFGQGTKLEIKGGGGGGSGGGGSGGGGSSSSSKAPPPSEVQLLESGGGLVQPGGSLKLSCAASGFTFNTYAMNWVRQAPGKGLEWVARIRSKYNNYATYYADSVKDRFTISRDDSKNTAYLQMNNLKTEDTAVYYCVRHGNFGNSYVSWFAYWGQGTLVTVSSGGGGSGGGGSGGGGSELVVTQEPSLTVSPGGTVTLTCRSSTGAVTTSNYANWVQQKPGQAPRGLIGGTNKRAPGTPARFSGSLLGGKAALTLSGVQPEDEAEYYCALWYSNLWVFGGGTKLTVLDKTHTCPPCPAPEAAGGPSVFLFPPKPKDQLMISRTPEVTCVVVDVSHEDPEVKFNWYVDGVEVHNAKTKPREEQYASTYRVVSVLTVLHQDWLNGKEYKCKVSNKALPASIEKTISKAKGQPREPQVYTLPPSRDELTKNQVSLTCLVKGFYPSDIAVEWESNGQPENNYKTTPPVLDSDGSFFLYSKLTVDKSRWQQGNVFSCSVLHEALHNHYTQKSLSLSPG
- EC50 of PBMC-mediated killing of Raji-LUC cells [5]: 0.00123 nM
- EC50 of PBMC-mediated killing of Raji-LUC cells, second row [5]: 0.00125 nM
- EC50 of CIK-mediated killing of Raji-LUC cells [6]: 0.000699 nM
- EC50 of CIK-mediated killing of Raji-LUC cells, second row [6]: 0.000202 nM
- EC50 of CIK-mediated killing of Reh cells [8]: 0.00171 nM
